Assay results: the supplement of paper PMC9112550, “Optimization of the antimicrobial peptide Bac7 by deep mutational scanning” (BMC Biology, 2022)

Each sequence was assayed on Escherichia coli TOP10 (assay: shrunken log2 fold change of peptide-encoding DNA abundance (4.5 h post-induction vs induction); higher = less antimicrobial activity (less host growth inhibition)). Conditions: time post-induction: 4.5 h; library: site-saturation at positions 5, 18, 19, 20.
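Note: peptides expressed intracellularly from a pBAD plasmid library in pooled LB shake-flask culture, induced with 0.3% L-arabinose, DNA abundance read by NGS, three biological replicates, DESeq2 with apeglm shrinkage.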

Sequence | shrunken log2 fold change
RRIRQRPPRLPRPRPRPPSCPRP | 0.348
RRIRNRPPRLPRPRPRPISDPRP | -0.0335
RRIRKRPPRLPRPRPRPVINPRP | -0.0513
RRIRGRPPRLPRPRPRPQNLPRP | -0.34
RRIRFRPPRLPRPRPRPKGFPRP | 0.21
RRIRMRPPRLPRPRPRPYPWPRP | -0.274
RRIRNRPPRLPRPRPRPRMCPRP | 0.138
RRIRTRPPRLPRPRPRPYETPRP | -0.00043
RRIRFRPPRLPRPRPRPEVWPRP | 0.273
RRIRARPPRLPRPRPRPVEDPRP | 0.0532
RRIRCRPPRLPRPRPRPHHRPRP | -0.266
RRIRDRPPRLPRPRPRPCQIPRP | 0.0759
RRIRCRPPRLPRPRPRPHQRPRP | -0.422
RRIRIRPPRLPRPRPRPNEHPRP | -0.459
RRIRFRPPRLPRPRPRPIPMPRP | -0.428
RRIRVRPPRLPRPRPRPPAQPRP | 0.223
RRIRQRPPRLPRPRPRPAKNPRP | -0.0935
RRIRNRPPRLPRPRPRPNFKPRP | -0.0826
RRIRSRPPRLPRPRPRPQLYPRP | -0.071
RRIRPRPPRLPRPRPRPCARPRP | 0.0698
RRIRSRPPRLPRPRPRPDSQPRP | -0.267
RRIRARPPRLPRPRPRPLQFPRP | 0.0375
RRIRRRPPRLPRPRPRPAQIPRP | 0.494

Sequence | shrunken log2 fold change
RRIRFRPPRLPRPRPRPSEDPRP | 0.00214
RRIRRRPPRLPRPRPRPMKEPRP | 0.135
RRIRLRPPRLPRPRPRPKNKPRP | -0.291
RRIRFRPPRLPRPRPRPVGTPRP | 0.00754
RRIRGRPPRLPRPRPRPYVGPRP | 0.0053
RRIRKRPPRLPRPRPRPSTVPRP | -0.159
RRIRFRPPRLPRPRPRPRFYPRP | -0.0297
RRIRIRPPRLPRPRPRPIVNPRP | -0.67
RRIRHRPPRLPRPRPRPNLKPRP | -0.465
RRIRDRPPRLPRPRPRPQAFPRP | -0.184
RRIRGRPPRLPRPRPRPFDMPRP | 0.255
RRIRCRPPRLPRPRPRPGDWPRP | 0.377
RRIRHRPPRLPRPRPRPVPHPRP | -0.031
RRIRLRPPRLPRPRPRPKCLPRP | 0.117
RRIRDRPPRLPRPRPRPGMPPRP | -0.221
RRIRCRPPRLPRPRPRPEKRPRP | -0.123
RRIRFRPPRLPRPRPRPVGDPRP | 0.535
RRIRRRPPRLPRPRPRPVQNPRP | 0.285
RRIRLRPPRLPRPRPRPTMNPRP | -0.362
RRIRIRPPRLPRPRPRPDDQPRP | 0.0121
RRIRDRPPRLPRPRPRPSVVPRP | -0.0127
RRIRFRPPRLPRPRPRPNDRPRP | -0.108
RRIRWRPPRLPRPRPRPWRPPRP | 0.178

Sequence | shrunken log2 fold change
RRIRRRPPRLPRPRPRPVMQPRP | 0.316
RRIRHRPPRLPRPRPRPIEFPRP | -0.19
RRIRPRPPRLPRPRPRPERSPRP | 0.0565
RRIRIRPPRLPRPRPRPNYHPRP | -0.733
RRIRNRPPRLPRPRPRPAAPPRP | 0.331
RRIRPRPPRLPRPRPRPVWWPRP | 0.232
RRIRARPPRLPRPRPRPDPFPRP | 0.0855
RRIRYRPPRLPRPRPRPHWPPRP | -0.322
RRIRFRPPRLPRPRPRPPSKPRP | -0.148
RRIRHRPPRLPRPRPRPWFMPRP | -0.474
RRIRSRPPRLPRPRPRPPIPPRP | 0.0379
RRIRFRPPRLPRPRPRPGVAPRP | 0.292
RRIRFRPPRLPRPRPRPNIPPRP | -0.67
RRIRVRPPRLPRPRPRPACYPRP | -0.0764
RRIRLRPPRLPRPRPRPSWFPRP | -0.237
RRIRTRPPRLPRPRPRPNMNPRP | -0.864
RRIRFRPPRLPRPRPRPPMPPRP | 0.568
RRIRGRPPRLPRPRPRPDYCPRP | 0.0958
RRIRLRPPRLPRPRPRPFAEPRP | 0.102
RRIRNRPPRLPRPRPRPHGMPRP | -0.0652
RRIRGRPPRLPRPRPRPPEPPRP | 0.397
RRIRDRPPRLPRPRPRPTRVPRP | 0.0497
RRIRWRPPRLPRPRPRPQFEPRP | 1.87

Sequence | shrunken log2 fold change
RRIRKRPPRLPRPRPRPVMTPRP | 0.0351
RRIRLRPPRLPRPRPRPYVMPRP | -0.194
RRIRVRPPRLPRPRPRPRVYPRP | -0.587
RRIRNRPPRLPRPRPRPLDRPRP | 0.0215
RRIRFRPPRLPRPRPRPVTRPRP | -0.0263
RRIRWRPPRLPRPRPRPRGFPRP | 0.25
RRIRFRPPRLPRPRPRPHIAPRP | -0.532
RRIRSRPPRLPRPRPRPKSPPRP | 0.291
RRIRSRPPRLPRPRPRPWKIPRP | -0.0842
RRIRARPPRLPRPRPRPESHPRP | 1.04
RRIRNRPPRLPRPRPRPFNYPRP | -0.752
RRIRSRPPRLPRPRPRPRHWPRP | 0.618
RRIRERPPRLPRPRPRPQHAPRP | -0.107
RRIRRRPPRLPRPRPRPGAAPRP | 0.866
RRIRYRPPRLPRPRPRPHYFPRP | -0.833
RRIRPRPPRLPRPRPRPKPSPRP | 0.699
RRIRVRPPRLPRPRPRPSFWPRP | -0.0205
RRIRQRPPRLPRPRPRPAQSPRP | 0.29
RRIRLRPPRLPRPRPRPYSCPRP | -0.458
RRIRCRPPRLPRPRPRPPHWPRP | 0.531
RRIRLRPPRLPRPRPRPNQKPRP | -0.0744
RRIRLRPPRLPRPRPRPAQWPRP | -0.0397
